Experimental data reported in patent US20240277845A1.
Numbering of substitutions follows the chain as printed. Names and notes keep the numbering of the source.

B1: R3Mab heavy-chain fusion of wild-type ULBP2 (MicAbody) (bispecific antibody, part only; not given: R3Mab variable domains, light chain, Fc, not shown: a dimerising Fc or GST)
heavy, part: GGGSDPHSLCYDITVIPKFRPGPRWCAVQGQVDEKTFLHYDCGNKTVTPVSPLGKKLNVTTAWKAQNPVLREVVDILTEQLRDIQLENYTPKEPLTLQARMSCEQKAEGHSSGSWQFSFDGQIFLLFDSEKRMWTTVHPGARKMKEKWENDKVVAMSFHYFSMGDCIGWLEDFLMGMDSTLEPSAGAP
B2: R3Mab heavy-chain fusion of ULBP2 R81W (MicAbody) (bispecific antibody, part only; not given: R3Mab variable domains, light chain, Fc, not shown: a dimerising Fc or GST)
heavy, part: B1 heavy, part with R82W
B3: R3Mab heavy-chain fusion of U2S3 (MicAbody) (bispecific antibody, part only; not given: R3Mab variable domains, light chain, Fc, IgG1, not shown: a dimerising Fc or GST)
heavy, part: GGGSEPHSLSYDITVIPKFRPGPRWCAVQGQVDEKTFLHYDCGNKTVTPVSPLGKKLNVTTAWKAQNPVLREVVDILTEQLWDIQLENYTPKEPLTLQARMSCEQKAEGHSSGSWQFSFDGQIFLLFDSEKRMWTTVHPGARKMKEKWENDKVVATKLYLWSMGDCIGWLEDFLMGMDSTLEP

How the values were obtained:
Fc-wtNKG2D (human) = Fc-wtNKG2D (human) (UniProt P26718); test: ELISA; wells coated with Fc-wtNKG2D, R3Mab heavy-chain MicAbody titrated
Fc-iNKG2D.YA (human) = Fc-iNKG2D.YA (human) (UniProt P26718); test: ELISA; wells coated with Fc-iNKG2D.YA, R3Mab heavy-chain MicAbody titrated
Sequence of Fc-iNKG2D.YA (human) (P26718 other isoform, or with tags, fused parts or gaps limits assumed): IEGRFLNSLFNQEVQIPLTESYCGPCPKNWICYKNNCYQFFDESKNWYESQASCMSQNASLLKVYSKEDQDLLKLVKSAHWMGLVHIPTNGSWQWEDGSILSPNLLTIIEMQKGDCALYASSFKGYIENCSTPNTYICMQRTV

Sequence of Fc-wtNKG2D (human) (P26718 other isoform, or with tags, fused parts or gaps limits assumed): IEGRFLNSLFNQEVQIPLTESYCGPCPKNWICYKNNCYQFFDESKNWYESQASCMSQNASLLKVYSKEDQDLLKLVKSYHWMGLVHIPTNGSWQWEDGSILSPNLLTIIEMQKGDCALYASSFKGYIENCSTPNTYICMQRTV

Row | Binder | EC50 (read off the curve) (Fc-wtNKG2D (human)) [nM] | EC50 (read off the curve) (Fc-iNKG2D.YA (human)) [nM]
1 | B1 | 0.4 | 
2 | B2 | 0.02 | 
3 | B3 |  | 0.02
